Measurements published in patent publication US20240117019A1.

Assays:
[1] = target: PhtD protein of pneumococcal strain TCH8431 (serotype 19A), native, in bacterial lysates (Streptococcus pneumoniae strain TCH8431 (serotype 19A)); assay: flow cytometry on whole bacteria, 19A (TCH8431), mAb 10 µg/ml, APC anti-human IgG Fc; no mAb 0.4
[2] = target: PhtD, WU2 (3) (Streptococcus pneumoniae); assay: flow cytometry on whole bacteria, 3 (WU2), mAb 10 µg/ml, APC anti-human IgG Fc; no mAb 1.3
[3] = target: recombinant His-tagged full-length pneumococcal histidine triad protein D (PhtD) from strain TCH8431 (serotype 19A) (Streptococcus pneumoniae strain TCH8431 (serotype 19A)); assay: competitive BLI, His-tagged PhtD on anti-penta-HIS tips; first mAb PhtD8, then second mAb, each 100 µg/mL; white cell
[4] = target: PhtD, serotype 9N (Streptococcus pneumoniae); assay: flow cytometry on whole bacteria, serotype 9N, mAb 10 µg/ml, APC anti-human IgG Fc; no mAb 1.5
[5] = target: PhtD, serotype 12F (Streptococcus pneumoniae); assay: flow cytometry on whole bacteria, serotype 12F, mAb 10 µg/ml, APC anti-human IgG Fc; no mAb 0.3
[6] = target: recombinant His-tagged full-length pneumococcal histidine triad protein D (PhtD) from strain TCH8431 (serotype 19A) (Streptococcus pneumoniae strain TCH8431 (serotype 19A)); assay: ELISA on coated recombinant PhtD, non-linear regression fit
[7] = target: recombinant His-tagged full-length pneumococcal histidine triad protein D (PhtD) from strain TCH8431 (serotype 19A) (Streptococcus pneumoniae strain TCH8431 (serotype 19A)); assay: ELISA on coated recombinant PhtD, OD405
[8] = target: recombinant His-tagged full-length pneumococcal histidine triad protein D (PhtD) from strain TCH8431 (serotype 19A) (Streptococcus pneumoniae strain TCH8431 (serotype 19A)); assay: competitive BLI, His-tagged PhtD on anti-penta-HIS tips; first mAb PhtD7, then second mAb, each 100 µg/mL; white cell
[9] = target: PhtD, serotype 6C (Streptococcus pneumoniae); assay: flow cytometry on whole bacteria, serotype 6c, mAb 10 µg/ml, APC anti-human IgG Fc; no mAb 1.3
[10] = target: PhtD, serotype 11A (Streptococcus pneumoniae); assay: flow cytometry on whole bacteria, serotype 11A, mAb 10 µg/ml, APC anti-human IgG Fc; no mAb 0.6
[11] = target: recombinant His-tagged full-length pneumococcal histidine triad protein D (PhtD) from strain TCH8431 (serotype 19A) (Streptococcus pneumoniae strain TCH8431 (serotype 19A)); assay: competitive BLI, His-tagged PhtD on anti-penta-HIS tips; first mAb PhtD3, then second mAb, each 100 µg/mL; black cell
[12] = target: PhtD 1-170 (Streptococcus pneumoniae); assay: ELISA on coated MBP-PhtD fragment, OD405
[13] = target: PhtD 1-343 (Streptococcus pneumoniae); assay: ELISA on coated MBP-PhtD fragment, OD405
[14] = target: PhtD 168-343 (Streptococcus pneumoniae); assay: ELISA on coated MBP-PhtD fragment, OD405
[15] = target: PhtD protein of pneumococcal strain TIGR4 (serotype 4), native, in bacterial lysates (Streptococcus pneumoniae strain TIGR4 (serotype 4)); assay: flow cytometry on whole bacteria, 4 (TIGR4), mAb 10 µg/ml, APC anti-human IgG Fc; no mAb 0.1
[16] = target: recombinant His-tagged full-length pneumococcal histidine triad protein D (PhtD) from strain TCH8431 (serotype 19A) (Streptococcus pneumoniae strain TCH8431 (serotype 19A)); assay: competitive BLI, His-tagged PhtD on anti-penta-HIS tips; first mAb PhtD6, then second mAb, each 100 µg/mL; grey cell
[17] = target: PhtD, serotype 6D (Streptococcus pneumoniae); assay: flow cytometry on whole bacteria, serotype 6d, mAb 10 µg/ml, APC anti-human IgG Fc; no mAb 0.4
[18] = target: PhtD, serotype 2 (Streptococcus pneumoniae); assay: flow cytometry on whole bacteria, serotype 2, mAb 10 µg/ml, APC anti-human IgG Fc; no mAb 0.6

B1: human monoclonal antibody PhtD3 (antibody, V domains shown)
VH: QVQLVQSGPDVKKPGSSVKVSCKASGAAFESFAFAWVRQAPGQGFEWMGRIIPILETRDYAEKFQGRMTMTTDESTATAYMELNSLRFEDTAVYFCARDGHIMRTTLSDAALDVWGQGTTVIVSS
VL: DIVMTQSPVTLSLSPGERATLSCRASQSLTDNYLAWYQQKPGQAPRLLIYAASTRATGIPDRISGSGSGTDFTLTISRVEPEDFAMFYCQQYQNSPFTFGGGTTVEIK
Binder B1 has a % APC+ [1] of 18.3%, a % APC+ [2] of 16% and a percent binding of the second mAb in the presence of the first mAb [3] of 77%. It also gave a % APC+ [4] of 28.1%, a % APC+ [5] of 45.8% and an EC50 [6] of 0.045 µg/mL. The EC50 (read off the curve) [7] was 0.1 µg/mL, the percent binding of the second mAb in the presence of the first mAb [8] was 81% and the % APC+ [9] was 4.2%. For the same binder, the % APC+ [10] was 19.6%, the percent binding of the second mAb in the presence of the first mAb [11] was 9% and the EC50 (read off the curve) [12] was 0.1 µg/mL. For the same binder, the EC50 (read off the curve) [13] was 0.1 µg/mL, the EC50 (read off the curve) [14] was 0.1 µg/mL and the % APC+ [15] was 7.2%. The percent binding of the second mAb in the presence of the first mAb [16] was 47%, the % APC+ [17] was 2.4% and the % APC+ [18] was 3.2%.

B2: PhtD3-IgG2a (recombinant chimera of mAb PhtD3 with a mouse IgG2a Fc region) (antibody, V domains shown)
VH: B1 VH
VL: B1 VL
B2 showed an EC50 (read off the curve) [7] of 0.05 µg/mL.
